According to patent publication US6558918:

What was measured:
[1] = biological target: Cdc2-A14/cyclin B1 complex, P06493
[2] = biological target: Cdc2-AF/CyclinB1 complex, P06493
[3] = biological target: Cdc2-F15/CyclinB1 complex, P06493
[4] = biological target: Cdc2/cyclin A complex, P06493
[5] = biological target: Cdk2/cyclin A complex, P24941
[6] = biological target: Cdk2/cyclin E complex, P24941
[7] = biological target: Cdk4/cyclin D1 complex, P11802
[8] = biological target: kinase-deficient Cdc2 mutant (K-) complexed with cyclin B1, P06493
[9] = biological target: wild-type Cdc2/cyclin B1 complex, P06493
Chain of wild-type Cdc2/cyclin B1 complex, P06493 (P06493 whole entry, looked up, one chain of several): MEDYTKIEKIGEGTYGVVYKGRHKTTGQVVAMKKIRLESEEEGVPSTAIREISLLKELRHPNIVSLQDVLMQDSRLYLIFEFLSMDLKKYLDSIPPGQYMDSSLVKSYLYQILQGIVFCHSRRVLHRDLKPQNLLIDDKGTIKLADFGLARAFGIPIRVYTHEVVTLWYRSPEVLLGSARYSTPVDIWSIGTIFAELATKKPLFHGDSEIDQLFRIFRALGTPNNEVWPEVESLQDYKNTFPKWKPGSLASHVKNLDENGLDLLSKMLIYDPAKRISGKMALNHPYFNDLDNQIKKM

Chain of kinase-deficient Cdc2 mutant (K-) complexed with cyclin B1, P06493 (P06493 whole entry, looked up, change not shown, one chain of several): as the sequence (P06493 whole entry, looked up, one chain of several) above
Chain of Cdc2-F15/CyclinB1 complex, P06493 (P06493 whole entry, looked up, one chain of several): as above
Chain of Cdc2-AF/CyclinB1 complex, P06493 (P06493 whole entry, looked up, one chain of several): as above
Chain of Cdc2/cyclin A complex, P06493 (P06493 whole entry, looked up, one chain of several): as above
Chain of monomeric Cdc2, P06493 (P06493 whole entry, looked up): as the sequence (P06493 whole entry, looked up, one chain of several) above
Chain of Cdc2-A14/cyclin B1 complex, P06493 (P06493 whole entry, looked up, one chain of several): as above
Chain of Cdk4/cyclin D1 complex, P11802 (P11802 whole entry, looked up, one chain of several): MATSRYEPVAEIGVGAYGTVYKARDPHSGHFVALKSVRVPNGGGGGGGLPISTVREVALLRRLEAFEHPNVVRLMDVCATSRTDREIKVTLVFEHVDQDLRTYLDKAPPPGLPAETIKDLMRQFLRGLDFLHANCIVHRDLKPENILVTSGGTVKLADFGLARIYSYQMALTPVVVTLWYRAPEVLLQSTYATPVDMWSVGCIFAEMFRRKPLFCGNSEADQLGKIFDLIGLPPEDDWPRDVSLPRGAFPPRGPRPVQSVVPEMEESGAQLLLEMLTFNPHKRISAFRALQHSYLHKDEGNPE

B1: Cell Growth Regulatory Protein, truncated hybrid protein (residues 1-9 deleted) with N-terminal Glu-Glu tag, expressed in Sf9 cells (protein)
chain: MEYMPMEGTRPEMPMPTEGTPPPLSGTPIPVPAYFRHAEPGFSLKRPRGLSRSLPPPPPAKGSIPISRLFPPRTPGWHQLQPRRVSFRGEASETLQSPGYDPSRPESFFQQSFQRLSRLGHGSYGEVFKVRSKEDGRLYAVKRSMSPFRGPKDRARKLAEVGSHEKVGQHPCCVRLEQAWEEGGILYLQTELCGPSLQQHCEAWGASLPEAQVWGYLRDTLLALAHLHSQGLVHLDVKPANIFLGPRGRCKLGDFGLLVELGTAGAGEVQEGDPRYMAPELLQGSYGTAADVFSLGLTILEVACNMELPHGGEGWQQLRQGYLPPEFTAGLSSELRSVLVMMLEPDPKLRATAEALLALPVLRQPRAWGVLWCMAAEALSRGWALWQALLALLCWLWHGLAHPASWLQPLGPPATPPDSPPCSLLLDSSFSSNWDDDSLGPSLSPEAVLARTVGSTSTPRSRCTPRDALDLSDINSEPPRGSFPSFEPRNLLSMFEDTLDPT
- histone H1 kinase activity (Cdc2 kinase activation) in mixed Sf9 lysates [1]: such lysates also inhibited both Cdc2-A14 and Cdc2-F15 activation; Cdc2-A14 lysates consistently retain some histone H1 kinase activity
- 32P-labeling in a kinase reaction with affinity purified proteins, SDS-PAGE [2]: the Cdc2-AF mutant was not phosphorylated by Cell Growth Regulatory Protein or Wee1
- histone H1 kinase activity (Cdc2 kinase activation) in mixed Sf9 lysates [3]: such lysates also inhibited both Cdc2-A14 and Cdc2-F15 activation
- histone H1 kinase activity in mixed Sf9 lysates [4]: greatly reduced histone H1 kinase activity compared to a mock-treated or Cdc2-AF control lysate
- 32P-labeling in a kinase reaction with purified proteins [5]: Cell Growth Regulatory Protein failed to phosphorylate Cdk2 that was complexed with either cyclin A or cyclin E
- histone H1 kinase activity in mixed Sf9 lysates, wild-type Cdk2 against Cdk2-AF [5]: an equivalent amount of histone H1 kinase activity was present in wild-type Cdk2 and Cdk2-AF lysates that had been mixed with either cyclin A or cyclin E lysates in the presence of Cell Growth Regulatory Protein
- 32P-labeling in a kinase reaction with purified proteins [6]: Cell Growth Regulatory Protein failed to phosphorylate Cdk2 that was complexed with either cyclin A or cyclin E
- histone H1 kinase activity in mixed Sf9 lysates, wild-type Cdk2 against Cdk2-AF [6]: an equivalent amount of histone H1 kinase activity was present in wild-type Cdk2 and Cdk2-AF lysates that had been mixed with either cyclin A or cyclin E lysates in the presence of Cell Growth Regulatory Protein
- 32P-labeling in a kinase reaction with purified proteins [7]: neither Cell Growth Regulatory Protein nor Wee1 phosphorylated the Cdk4 subunit
- 32P-labeling in a kinase reaction with affinity purified proteins, SDS-PAGE [8]: both purified Cell Growth Regulatory Protein and Wee1 kinases were capable of phosphorylating wild-type Cdc2 as well as a kinase-deficient Cdc2 mutant (K-), each of which was complexed with cyclin B1
- phosphoamino acid analysis of 32P-labeled Cdc2 [8]: phosphorylation occurred only on threonine residues
- 32P-labeling in a kinase reaction with monomeric Cdc2 as substrate (monomeric Cdc2, P06493): Cell Growth Regulatory Protein did not phosphorylate monomeric Cdc2
- 32P-labeling in a kinase reaction with affinity purified proteins, SDS-PAGE [9]: both purified Cell Growth Regulatory Protein and Wee1 kinases were capable of phosphorylating wild-type Cdc2 as well as a kinase-deficient Cdc2 mutant (K-), each of which was complexed with cyclin B1
- 32P-labeling in a kinase reaction with the Cdc2/cyclin B1 complex reconstituted from monomers [9]: reconstitution of the Cdc2/cyclin B1 complex, by pre-incubating monomeric Cdc2 with monomeric cyclin B1, enabled Cell Growth Regulatory Protein to phosphorylate Cdc2
- histone H1 kinase activity (Cdc2 kinase activation) in mixed Sf9 lysates [9]: a dramatic reduction in Cdc2 kinase activation was observed, similar to that observed for Wee1
- immunoblotting of mixed lysates with phosphotyrosine antibodies [9]: showed that Cdc2 was phosphoryalted on Tyrosine 15 to some extent
